Six molecules from patent US12679878B2, “CRF2 receptor agonists and their use in therapy” (SANOFI, priority 2020, dated 2026) can be followed below.

Starred links: 1 amine or outer side, 2 acyl side, 3 side chain; linkers in the order of their positions; H or OH if unused. Non-standard residues stand in square brackets, D forms with d. Groups on a side chain read outwards from the residue. No end group written: not given here. *: point of attachment. C18 diacid = O=C(O)CCCCCCCCCCCCCCCCC(=O)*; γGlu = O=C(O)[C@H](CCC(=O)[*:2])N[*:1]; AEEA = NCCOCCOCC(=O)O; Aib = CC(C)(N)C(=O)O

For this test, the target named is human corticotropin-releasing factor 2α (CRF2 α receptor) (human), Q13324. Briefly: cell-based or functional assay.
Chain of human corticotropin-releasing factor 2α (CRF2 α receptor) (human), Q13324 (Q13324 20-411): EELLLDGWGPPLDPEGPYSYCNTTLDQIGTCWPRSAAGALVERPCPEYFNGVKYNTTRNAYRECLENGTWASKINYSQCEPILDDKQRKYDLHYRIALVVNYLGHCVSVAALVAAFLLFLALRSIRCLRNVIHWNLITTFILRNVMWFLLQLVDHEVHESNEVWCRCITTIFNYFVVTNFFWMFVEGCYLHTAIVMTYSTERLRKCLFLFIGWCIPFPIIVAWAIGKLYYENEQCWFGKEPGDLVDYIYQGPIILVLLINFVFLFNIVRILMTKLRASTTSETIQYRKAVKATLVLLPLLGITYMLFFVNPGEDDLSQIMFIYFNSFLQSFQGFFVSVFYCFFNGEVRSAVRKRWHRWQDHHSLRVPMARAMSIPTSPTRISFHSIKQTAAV

B1: SEQ ID NO: 39 (peptide)
peptide: IVLSLDVPIKLK([AEEA-AEEA-γGlu-C18 diacid])QILLEQERQRKERQQAETNAQILAQV-NH2
modifications: N-terminus assumed
SMILES: CC[C@H](C)[C@H](N)C(=O)N[C@H](C(=O)N[C@@H](CC(C)C)C(=O)N[C@@H](CO)C(=O)N[C@@H](CC(C)C)C(=O)N[C@@H](CC(=O)O)C(=O)N[C@H](C(=O)N1CCC[C@H]1C(=O)N[C@H](C(=O)N[C@@H](CCCCN)C(=O)N[C@@H](CC(C)C)C(=O)N[C@@H](CCCCNC(=O)COCCOCCNC(=O)COCCOCCNC(=O)CC[C@H](NC(=O)CCCCCCCCCCCCCCCCC(=O)O)C(=O)O)C(=O)N[C@@H](CCC(N)=O)C(=O)N[C@H](C(=O)N[C@@H](CC(C)C)C(=O)N[C@@H](CC(C)C)C(=O)N[C@@H](CCC(=O)O)C(=O)N[C@@H](CCC(N)=O)C(=O)N[C@@H](CCC(=O)O)C(=O)N[C@@H](CCCNC(=N)N)C(=O)N[C@@H](CCC(N)=O)C(=O)N[C@@H](CCCNC(=N)N)C(=O)N[C@@H](CCCCN)C(=O)N[C@@H](CCC(=O)O)C(=O)N[C@@H](CCCNC(=N)N)C(=O)N[C@@H](CCC(N)=O)C(=O)N[C@@H](CCC(N)=O)C(=O)N[C@@H](C)C(=O)N[C@@H](CCC(=O)O)C(=O)N[C@H](C(=O)N[C@@H](CC(N)=O)C(=O)N[C@@H](C)C(=O)N[C@@H](CCC(N)=O)C(=O)N[C@H](C(=O)N[C@@H](CC(C)C)C(=O)N[C@@H](C)C(=O)N[C@@H](CCC(N)=O)C(=O)N[C@H](C(N)=O)C(C)C)[C@@H](C)CC)[C@@H](C)O)[C@@H](C)CC)[C@@H](C)CC)C(C)C)C(C)C
Molecule B1 yielded an EC50 [nM], 0% HSA of 0.65 nM.

B2: SEQ ID NO: 37 (peptide)
peptide: IVLSLDVPTKLK([AEEA-AEEA-γGlu-C18 diacid])QKLLKQERQRKERQQAETNKRILERV-NH2
modifications: N-terminus assumed
SMILES: CC[C@H](C)[C@H](N)C(=O)N[C@H](C(=O)N[C@@H](CC(C)C)C(=O)N[C@@H](CO)C(=O)N[C@@H](CC(C)C)C(=O)N[C@@H](CC(=O)O)C(=O)N[C@H](C(=O)N1CCC[C@H]1C(=O)N[C@H](C(=O)N[C@@H](CCCCN)C(=O)N[C@@H](CC(C)C)C(=O)N[C@@H](CCCCNC(=O)COCCOCCNC(=O)COCCOCCNC(=O)CC[C@H](NC(=O)CCCCCCCCCCCCCCCCC(=O)O)C(=O)O)C(=O)N[C@@H](CCC(N)=O)C(=O)N[C@@H](CCCCN)C(=O)N[C@@H](CC(C)C)C(=O)N[C@@H](CC(C)C)C(=O)N[C@@H](CCCCN)C(=O)N[C@@H](CCC(N)=O)C(=O)N[C@@H](CCC(=O)O)C(=O)N[C@@H](CCCNC(=N)N)C(=O)N[C@@H](CCC(N)=O)C(=O)N[C@@H](CCCNC(=N)N)C(=O)N[C@@H](CCCCN)C(=O)N[C@@H](CCC(=O)O)C(=O)N[C@@H](CCCNC(=N)N)C(=O)N[C@@H](CCC(N)=O)C(=O)N[C@@H](CCC(N)=O)C(=O)N[C@@H](C)C(=O)N[C@@H](CCC(=O)O)C(=O)N[C@H](C(=O)N[C@@H](CC(N)=O)C(=O)N[C@@H](CCCCN)C(=O)N[C@@H](CCCNC(=N)N)C(=O)N[C@H](C(=O)N[C@@H](CC(C)C)C(=O)N[C@@H](CCC(=O)O)C(=O)N[C@@H](CCCNC(=N)N)C(=O)N[C@H](C(N)=O)C(C)C)[C@@H](C)CC)[C@@H](C)O)[C@@H](C)O)C(C)C)C(C)C
Molecule B2 yielded an EC50 [nM], 0% HSA of 1.6 nM.

B3: SEQ ID NO: 38 (peptide)
peptide: IVLSLDVPTKLK([AEEA-AEEA-γGlu-C18 diacid])QKLLKQERQR[Aib]ERQQAETNKRILERV-NH2
modifications: N-terminus assumed
SMILES: CC[C@H](C)[C@H](N)C(=O)N[C@H](C(=O)N[C@@H](CC(C)C)C(=O)N[C@@H](CO)C(=O)N[C@@H](CC(C)C)C(=O)N[C@@H](CC(=O)O)C(=O)N[C@H](C(=O)N1CCC[C@H]1C(=O)N[C@H](C(=O)N[C@@H](CCCCN)C(=O)N[C@@H](CC(C)C)C(=O)N[C@@H](CCCCNC(=O)COCCOCCNC(=O)COCCOCCNC(=O)CC[C@H](NC(=O)CCCCCCCCCCCCCCCCC(=O)O)C(=O)O)C(=O)N[C@@H](CCC(N)=O)C(=O)N[C@@H](CCCCN)C(=O)N[C@@H](CC(C)C)C(=O)N[C@@H](CC(C)C)C(=O)N[C@@H](CCCCN)C(=O)N[C@@H](CCC(N)=O)C(=O)N[C@@H](CCC(=O)O)C(=O)N[C@@H](CCCNC(=N)N)C(=O)N[C@@H](CCC(N)=O)C(=O)N[C@@H](CCCNC(=N)N)C(=O)NC(C)(C)C(=O)N[C@@H](CCC(=O)O)C(=O)N[C@@H](CCCNC(=N)N)C(=O)N[C@@H](CCC(N)=O)C(=O)N[C@@H](CCC(N)=O)C(=O)N[C@@H](C)C(=O)N[C@@H](CCC(=O)O)C(=O)N[C@H](C(=O)N[C@@H](CC(N)=O)C(=O)N[C@@H](CCCCN)C(=O)N[C@@H](CCCNC(=N)N)C(=O)N[C@H](C(=O)N[C@@H](CC(C)C)C(=O)N[C@@H](CCC(=O)O)C(=O)N[C@@H](CCCNC(=N)N)C(=O)N[C@H](C(N)=O)C(C)C)[C@@H](C)CC)[C@@H](C)O)[C@@H](C)O)C(C)C)C(C)C
Molecule B3 yielded an EC50 [nM], 0% HSA of 20.9 nM.

B4: SEQ ID NO: 41 (peptide)
peptide: IVLSLDVPIKLK([AEEA-AEEA-γGlu-C18 diacid])QILLEQERQRKERQQAEKNVRILERV-NH2
modifications: N-terminus assumed
SMILES: CC[C@H](C)[C@H](N)C(=O)N[C@H](C(=O)N[C@@H](CC(C)C)C(=O)N[C@@H](CO)C(=O)N[C@@H](CC(C)C)C(=O)N[C@@H](CC(=O)O)C(=O)N[C@H](C(=O)N1CCC[C@H]1C(=O)N[C@H](C(=O)N[C@@H](CCCCN)C(=O)N[C@@H](CC(C)C)C(=O)N[C@@H](CCCCNC(=O)COCCOCCNC(=O)COCCOCCNC(=O)CC[C@H](NC(=O)CCCCCCCCCCCCCCCCC(=O)O)C(=O)O)C(=O)N[C@@H](CCC(N)=O)C(=O)N[C@H](C(=O)N[C@@H](CC(C)C)C(=O)N[C@@H](CC(C)C)C(=O)N[C@@H](CCC(=O)O)C(=O)N[C@@H](CCC(N)=O)C(=O)N[C@@H](CCC(=O)O)C(=O)N[C@@H](CCCNC(=N)N)C(=O)N[C@@H](CCC(N)=O)C(=O)N[C@@H](CCCNC(=N)N)C(=O)N[C@@H](CCCCN)C(=O)N[C@@H](CCC(=O)O)C(=O)N[C@@H](CCCNC(=N)N)C(=O)N[C@@H](CCC(N)=O)C(=O)N[C@@H](CCC(N)=O)C(=O)N[C@@H](C)C(=O)N[C@@H](CCC(=O)O)C(=O)N[C@@H](CCCCN)C(=O)N[C@@H](CC(N)=O)C(=O)N[C@H](C(=O)N[C@@H](CCCNC(=N)N)C(=O)N[C@H](C(=O)N[C@@H](CC(C)C)C(=O)N[C@@H](CCC(=O)O)C(=O)N[C@@H](CCCNC(=N)N)C(=O)N[C@H](C(N)=O)C(C)C)[C@@H](C)CC)C(C)C)[C@@H](C)CC)[C@@H](C)CC)C(C)C)C(C)C
B4 displayed an EC50 [nM], 0% HSA of 15.6 nM.

B5: SEQ ID NO: 36 (peptide)
peptide: IVLSLD[dV]PTKLK([AEEA-AEEA-γGlu-C18 diacid])QKLLKQERQRK[Aib]REQAEKNKRILERV-NH2
modifications: N-terminus assumed
SMILES: CC[C@H](C)[C@H](N)C(=O)N[C@H](C(=O)N[C@@H](CC(C)C)C(=O)N[C@@H](CO)C(=O)N[C@@H](CC(C)C)C(=O)N[C@@H](CC(=O)O)C(=O)N[C@@H](C(=O)N1CCC[C@H]1C(=O)N[C@H](C(=O)N[C@@H](CCCCN)C(=O)N[C@@H](CC(C)C)C(=O)N[C@@H](CCCCNC(=O)COCCOCCNC(=O)COCCOCCNC(=O)CC[C@H](NC(=O)CCCCCCCCCCCCCCCCC(=O)O)C(=O)O)C(=O)N[C@@H](CCC(N)=O)C(=O)N[C@@H](CCCCN)C(=O)N[C@@H](CC(C)C)C(=O)N[C@@H](CC(C)C)C(=O)N[C@@H](CCCCN)C(=O)N[C@@H](CCC(N)=O)C(=O)N[C@@H](CCC(=O)O)C(=O)N[C@@H](CCCNC(=N)N)C(=O)N[C@@H](CCC(N)=O)C(=O)N[C@@H](CCCNC(=N)N)C(=O)N[C@@H](CCCCN)C(=O)NC(C)(C)C(=O)N[C@@H](CCCNC(=N)N)C(=O)N[C@@H](CCC(=O)O)C(=O)N[C@@H](CCC(N)=O)C(=O)N[C@@H](C)C(=O)N[C@@H](CCC(=O)O)C(=O)N[C@@H](CCCCN)C(=O)N[C@@H](CC(N)=O)C(=O)N[C@@H](CCCCN)C(=O)N[C@@H](CCCNC(=N)N)C(=O)N[C@H](C(=O)N[C@@H](CC(C)C)C(=O)N[C@@H](CCC(=O)O)C(=O)N[C@@H](CCCNC(=N)N)C(=O)N[C@H](C(N)=O)C(C)C)[C@@H](C)CC)[C@@H](C)O)C(C)C)C(C)C
The molecule B5 returned an EC50 [nM], 0% HSA of 1.45 nM.

B6: SEQ ID NO: 40 (peptide)
peptide: IVLSLDVPIKLK([AEEA-AEEA-γGlu-C18 diacid])QILLEQERQRKERQQAETNVQILAQV-NH2
modifications: N-terminus assumed
SMILES: CC[C@H](C)[C@H](N)C(=O)N[C@H](C(=O)N[C@@H](CC(C)C)C(=O)N[C@@H](CO)C(=O)N[C@@H](CC(C)C)C(=O)N[C@@H](CC(=O)O)C(=O)N[C@H](C(=O)N1CCC[C@H]1C(=O)N[C@H](C(=O)N[C@@H](CCCCN)C(=O)N[C@@H](CC(C)C)C(=O)N[C@@H](CCCCNC(=O)COCCOCCNC(=O)COCCOCCNC(=O)CC[C@H](NC(=O)CCCCCCCCCCCCCCCCC(=O)O)C(=O)O)C(=O)N[C@@H](CCC(N)=O)C(=O)N[C@H](C(=O)N[C@@H](CC(C)C)C(=O)N[C@@H](CC(C)C)C(=O)N[C@@H](CCC(=O)O)C(=O)N[C@@H](CCC(N)=O)C(=O)N[C@@H](CCC(=O)O)C(=O)N[C@@H](CCCNC(=N)N)C(=O)N[C@@H](CCC(N)=O)C(=O)N[C@@H](CCCNC(=N)N)C(=O)N[C@@H](CCCCN)C(=O)N[C@@H](CCC(=O)O)C(=O)N[C@@H](CCCNC(=N)N)C(=O)N[C@@H](CCC(N)=O)C(=O)N[C@@H](CCC(N)=O)C(=O)N[C@@H](C)C(=O)N[C@@H](CCC(=O)O)C(=O)N[C@H](C(=O)N[C@@H](CC(N)=O)C(=O)N[C@H](C(=O)N[C@@H](CCC(N)=O)C(=O)N[C@H](C(=O)N[C@@H](CC(C)C)C(=O)N[C@@H](C)C(=O)N[C@@H](CCC(N)=O)C(=O)N[C@H](C(N)=O)C(C)C)[C@@H](C)CC)C(C)C)[C@@H](C)O)[C@@H](C)CC)[C@@H](C)CC)C(C)C)C(C)C
B6 yielded an EC50 [nM], 0% HSA of 15.4 nM.
